The labels stand for the following.
B1: TPR t1 (parent)
chain: GACCAAUCUGCCCUCAGAGCUCGAGAACAUCUUCGGAUGCAGAGGAGGCAGGCUUCGGUGGCGCGAUAGCGCCAACGUCCUCAACCUCCAAUGCAUCCCACCACAUGAUGAUGCCUGAAGAGCCUUGGUUUUUUG

In the data set the parent is B1. Kind of data set: polymerase ribozyme fitness, log enrichment relative to wild type (log ratio); higher = more active; in vitro selection for triplet polymerase activity. The method in brief:
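Both subunits of a heterodimeric triplet polymerase ribozyme were given their own mutant library, built by PCR and transcribed. Each library was annealed with a biotinylated primer, the partner subunit and triplets, incubated frozen at −7 °C, and its extended constructs gel-excised, captured on streptavidin beads and amplified by RT-PCR, all in one round done in triplicate. Fitness is the logarithm of genotype enrichment relative to wild-type enrichment, with replicates averaged by inverse-variance weighting. That logarithm is base 2, and Illumina-sequenced genotypes needed ≥10 input reads and ≥1 read per output.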
Turning to U7C C53G C56A G60A A111G, the “polymerase ribozyme fitness (log ratio)” value is 0.682.

For G71C C79A C85G G120A, the “polymerase ribozyme fitness (log ratio)” value is -3.28.

With C34U G110A, the “polymerase ribozyme fitness (log ratio)” value was -4.68.

As to G60A G120U, the “polymerase ribozyme fitness (log ratio)” value is 0.305.

As for G52U C64U C82G, the “polymerase ribozyme fitness (log ratio)” value was -2.19.

Regarding A43C C101U, the “polymerase ribozyme fitness (log ratio)” value is -2.75.

As for C12A C99U, the “polymerase ribozyme fitness (log ratio)” value is -3.06.

For the variant U32C G60C A75C C79G A118U, the “polymerase ribozyme fitness (log ratio)” value was -1.88.

On to C72A A91C G127A, for which the “polymerase ribozyme fitness (log ratio)” value is -2.21.

On to A37U G47U U54C U78G C85U A119U, for which the “polymerase ribozyme fitness (log ratio)” value is -3.1.

A26U: the “polymerase ribozyme fitness (log ratio)” value was -2.98.

As for C56U U96C, the “polymerase ribozyme fitness (log ratio)” value amounted to 0.246.

For the variant U9A G39C C94U, the “polymerase ribozyme fitness (log ratio)” value is -0.376.

For the variant C4A C62A U92A U129A, the “polymerase ribozyme fitness (log ratio)” value was -5.8.

Turning to G63A C123U, the “polymerase ribozyme fitness (log ratio)” value turned out to be 0.883.

For C15U A18U C20U C28G G61U U87G C115U, the “polymerase ribozyme fitness (log ratio)” value was -5.

A24U C49G C64A C104U C123G: the “polymerase ribozyme fitness (log ratio)” value was -6.64.

Regarding G10C C99U, the “polymerase ribozyme fitness (log ratio)” value is -4.44.

With A27C G47U G63A C86U, the “polymerase ribozyme fitness (log ratio)” value was -6.59.

Turning to A18U G42A C53G C85U C89A, the “polymerase ribozyme fitness (log ratio)” value was -3.31.

Consider A5G G77U G113U G122C, for which the “polymerase ribozyme fitness (log ratio)” value is -3.27.

On to U7A C13U C15U G44U U59C G77U, for which the “polymerase ribozyme fitness (log ratio)” value was -2.18.

As to A27U C114A, the “polymerase ribozyme fitness (log ratio)” value was -3.53.

Turning to C11G G19A C53U C89A, the “polymerase ribozyme fitness (log ratio)” value is -2.96.

Take G45U C85U: the “polymerase ribozyme fitness (log ratio)” value was -2.01.

For the variant A16U C124U U129G, the “polymerase ribozyme fitness (log ratio)” value was 0.0068.

As to C40G C72U G93A, the “polymerase ribozyme fitness (log ratio)” value was -0.859.

As to G48C G51U C53U, the “polymerase ribozyme fitness (log ratio)” value is -4.86.

Take G51U C62G C124G: the “polymerase ribozyme fitness (log ratio)” value was -5.32.

In the case of C28A G51U G60C C80U G110U G117A, the “polymerase ribozyme fitness (log ratio)” value is -2.3.

For the variant C8U G36U G39A G48U C72A U106A, the “polymerase ribozyme fitness (log ratio)” value was -1.69.

In the case of G10U G39U G63U G120A, the “polymerase ribozyme fitness (log ratio)” value is -0.0221.

On to U9C G10A G93A, for which the “polymerase ribozyme fitness (log ratio)” value is -0.147.

Consider U9A G47U A50C, for which the “polymerase ribozyme fitness (log ratio)” value was -1.68.

For the variant C64U U133G, the “polymerase ribozyme fitness (log ratio)” value is -0.439.

For the variant C13A C88U, the “polymerase ribozyme fitness (log ratio)” value is -2.04.

As for U9A G60A C70A C98U C101G C123G, the “polymerase ribozyme fitness (log ratio)” value is -6.71.

Consider C40U G107C U109A, for which the “polymerase ribozyme fitness (log ratio)” value was -6.59.

With A2C G71A, the “polymerase ribozyme fitness (log ratio)” value is -2.36.

A2C G63U C124U: the “polymerase ribozyme fitness (log ratio)” value was -1.65.

With G60U C102U U116A, the “polymerase ribozyme fitness (log ratio)” value is -4.78.

Take G39U G61U C73U U106A: the “polymerase ribozyme fitness (log ratio)” value is -1.81.

As to A18U C40U A46C C82A C86A C124G, the “polymerase ribozyme fitness (log ratio)” value is -4.93.

Take C56A A121U: the “polymerase ribozyme fitness (log ratio)” value was determined as 1.42.

As for A2U C12G, the “polymerase ribozyme fitness (log ratio)” value is -1.36.

As to U92C C101U C104U, the “polymerase ribozyme fitness (log ratio)” value is -0.793.

Regarding C8G C28A, the “polymerase ribozyme fitness (log ratio)” value is -3.24.

For the variant C8G C28G, the “polymerase ribozyme fitness (log ratio)” value is -2.05.

Take G25U A26G C64U: the “polymerase ribozyme fitness (log ratio)” value was -2.74.

As to C40U A105C, the “polymerase ribozyme fitness (log ratio)” value is -3.68.

Take C31A U32C C123G: the “polymerase ribozyme fitness (log ratio)” value is -3.17.

Turning to A66U G77C C82U G128C, the “polymerase ribozyme fitness (log ratio)” value was -4.12.

In the case of G60A C86U, the “polymerase ribozyme fitness (log ratio)” value is -0.149.

On to G61U U81G C86U G120U U133A, for which the “polymerase ribozyme fitness (log ratio)” value was -4.06.

On to C73A G77A, for which the “polymerase ribozyme fitness (log ratio)” value was -0.332.

In the case of G57A C72A C85U C99G U106G, the “polymerase ribozyme fitness (log ratio)” value is -7.04.

For the variant U112C G117A, the “polymerase ribozyme fitness (log ratio)” value was -0.498.

For G48C C123U, the “polymerase ribozyme fitness (log ratio)” value is -0.702.

Consider U67C A105U, for which the “polymerase ribozyme fitness (log ratio)” value is -4.9.

Turning to C8G C88A, the “polymerase ribozyme fitness (log ratio)” value is -0.193.

Turning to C49A G71A C98G A100C, the “polymerase ribozyme fitness (log ratio)” value was -7.02.

C70G U112C C114A: the “polymerase ribozyme fitness (log ratio)” value is -4.91.

As to C13U G45A G71C, the “polymerase ribozyme fitness (log ratio)” value is -0.496.

Consider U21C C89A, for which the “polymerase ribozyme fitness (log ratio)” value is -1.81.

As to G25C C31G C34U A43C U112C, the “polymerase ribozyme fitness (log ratio)” value is -6.28.

With U67C C88A, the “polymerase ribozyme fitness (log ratio)” value was -5.76.

On to C15A A66G, for which the “polymerase ribozyme fitness (log ratio)” value was -2.15.

Turning to A46C C101G G120A, the “polymerase ribozyme fitness (log ratio)” value was -2.

For the variant U9C A29U U129A, the “polymerase ribozyme fitness (log ratio)” value was -2.08.

With C15G G61C A90G U96A, the “polymerase ribozyme fitness (log ratio)” value was -6.02.

In the case of C20G C73U A83C, the “polymerase ribozyme fitness (log ratio)” value is -4.27.

As to A5C C28A G47U C53G G93U, the “polymerase ribozyme fitness (log ratio)” value was -7.47.

Take C40A A43C: the “polymerase ribozyme fitness (log ratio)” value is -3.2.

In the case of C49U C62A C115A G122A, the “polymerase ribozyme fitness (log ratio)” value is -2.37.

Take A18U G57U C94G U112G: the “polymerase ribozyme fitness (log ratio)” value was -5.68.

Consider C3U C40U U54C U92G, for which the “polymerase ribozyme fitness (log ratio)” value is -3.03.

As for C62G C79U U81A C85A, the “polymerase ribozyme fitness (log ratio)” value is -6.14.

Take C20A G42A G57U A100C: the “polymerase ribozyme fitness (log ratio)” value is -6.04.

Turning to G44A G69A C89A C124G, the “polymerase ribozyme fitness (log ratio)” value was -3.8.

Consider C13U C72U A74C, for which the “polymerase ribozyme fitness (log ratio)” value came out at 0.529.

Regarding A41G G44A C62A U131G, the “polymerase ribozyme fitness (log ratio)” value was -3.51.

As for C12A G57U C72U, the “polymerase ribozyme fitness (log ratio)” value was -0.582.

As for C99U A119G, the “polymerase ribozyme fitness (log ratio)” value is -1.65.

The record behind these values is the RNAGym collection of RNA variant scans (doi:10.1073/pnas.2313332121).
